Experimental findings from publication PMC6434023, “A TonB-dependent transporter is required for secretion of protease PopC across the bacterial outer membrane” (Nature Communications, 2019) are described below.

This test deals with T1, PopC expressed in E. coli (M. xanthus, UniProt Q1DFT5 1-475).
T1 construct: PopC of Myxococcus xanthus, expressed as 'native' PopC in E. coli; no tag is named; 'Native' probably means the untagged whole protein; also called native PopC; source: E. coli Rosetta-2(DE3) (WT or ΔtonB), IPTG-induced, in isolated membranes / cell fractions
T1 sequence (looked up): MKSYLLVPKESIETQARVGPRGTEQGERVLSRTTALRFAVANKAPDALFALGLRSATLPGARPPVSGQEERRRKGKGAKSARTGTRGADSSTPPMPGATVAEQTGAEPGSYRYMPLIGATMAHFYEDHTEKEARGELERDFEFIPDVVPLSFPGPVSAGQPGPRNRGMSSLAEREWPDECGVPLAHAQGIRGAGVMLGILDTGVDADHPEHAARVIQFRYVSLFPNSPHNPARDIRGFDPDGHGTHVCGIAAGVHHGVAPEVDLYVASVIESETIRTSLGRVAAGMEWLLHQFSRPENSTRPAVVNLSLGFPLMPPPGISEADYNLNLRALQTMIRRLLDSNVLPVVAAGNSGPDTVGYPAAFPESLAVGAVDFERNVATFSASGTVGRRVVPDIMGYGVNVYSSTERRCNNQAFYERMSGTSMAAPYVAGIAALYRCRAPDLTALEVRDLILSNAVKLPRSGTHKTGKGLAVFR
Kind of test: affinity purification with mass spectrometry; the co-IP samples (α-PopC on E. coli membranes, WT and ΔtonB) analysed by label-free quantitative MS; iBAQ ratio of Oar with PopC over without PopC, normalised to the input. Particulars: partners not purified.

B1: Oar expressed in E. coli (natural protein, M. xanthus, UniProt P38370 27-1061, looked up)
chain: QSSTIIGTVIDAQSRQPAADVVVTATSPNLQGEQTVVTDAQGNYRIPQLPPGDYTLRFEKEQFKPYARSAIQLRLNRTIRVNVELLPEALGEVVEIVGAPPTIDVGSTTMGVNVDQEFIKRIAVARPGGKGGATRSFESLAELAPGAQNDNYGVSINGSTSPENGYVVDGLSTNDPAFGVNASPLSIEFVQDVNIITGGYMPEFGRSTGGVINAVTRSGSNEFHGSVFANWTPGTLEGTRKQIREEGTVITGQNQLQNLGDFGATLGGPILKDKLWFFAGFAPSFTRYQHTRTLNALRVDDEGNTIKDETDFTVADAIPGSARKYYADSRTIQYMGKLTYLINQDHNVSFALNGTPTSTGGLGKLSVNPQSGGLPGVLATRPGDFGLTETKANTTSLALKYAGAFADKKVLVDANLGWFHQTASTLPGDGSNLGDRTGLAGYSRMVYTTPRALTLFEALPEGQEGACGSTPEEQLVRSPVTGYGVGGPGFMSDQTLDRYQANAKATYLLNALGTHVFKAGVDVELLSFDQVKAYGGGVFFQEGSNYGVAGQGPAVHDARRYGYQTGPDSAVTQFTQVAKTTSTTVGGFLQDSWSIANRVTLNLGVRYDVQALYGGNGDLSLLLGNQWSPRIGAIVDPFANGRAKVFVNFARYYEQVPLNLMDRAFPGENRISARRSLAEPGQGTATSCDPSSFESQQATCNTDSNLLAIPESSRNVNRFYTGGTVGGTPVDPDIKAQSSDEIVVGAEYEVLANTRLGASYTHKDMNSVIEDMSRDDGNTYFLGNPGSGFAGEFPTPVRNYDNVTVYLNRTFADGWLAQANYTWSRLYGNYPGLFRPETGQLDPNILSDFDLIELLENRTGLLPFDRTHQIKVFGAKEFNISNALSASVGVSYRGSSGTPINYWGSHWAYLQDESFVLPRGAGGRTPWINTIDSNIGVNYRVSKDSVVSFTLDVFNLFNFQGVNTVDQTYTLRDIKPIPGGTPADLENLPGRVEFQDQAPRDEPFGSVDGDVNKNFKNPLSYQAPRQVRFGIRYTF
notes: Oar (MXAN_1450) of Myxococcus xanthus, expressed as 'native' Oar in E. coli; no tag is named; 'Native' probably means the untagged protein with its own signal peptide; it was found enriched in the E. coli outer membrane; also called native Oar; source: E. coli Rosetta-2(DE3) (WT or ΔtonB), IPTG-induced, in isolated membranes / cell fractions
B1: the “fold enrichment of Oar in the α-PopC co-IP, with PopC over without PopC (iBAQ ratio), WT E. coli” value is 4.9 fold and the “fold enrichment of Oar in the α-PopC co-IP, with PopC over without PopC (iBAQ ratio), ΔtonB E. coli” value was 15.1 fold.
